{"source": "patent US20250257149A1", "about": "(GLYCOTOPE, published 2025)", "binders": {"B1": {"name": "humanized antibody PankoMab (with Fab glycosylation) (antibody, human IgG1, kappa)", "heavy": "not shown", "light": "DIVMTQSPLSNPVTPGEPASISCRSSKSLLHSNGITYFFWYLQKPGQSPQLLIYQMSNLASGVPDRFSGSGSGTDFTLRISRVEAEDVGVYYCAQNLELPPTFGQGTKVEIKRTVAAPSVFIFPPSDEQLKSGTASVVCLLNNFYPREAKVQWKVDNALQSGNSQESVTEQDSKDSTYSLSSTLTLSKADYEKHKVYACEVTHQGLSSPVTKSFNRGEC", "modifications": "N-glycan on Asn54 (Kabat/EU numbering; amino acid position 57) in CDR-H2", "notes": "IgG1 kappa made in NM-H9D8 cells (for the FcγRIIIa assay also in NM-H9D8-E6Q12, low fucose); also called PM; PankoMab-GEX®"}, "B2": {"name": "PankoMab N54D (antibody, V domains shown)", "VH": "EVQLVESGGGLVQPGGSMRLSCVASGFPFSNYWMNWVRQAPGKGLEWVGEIRLKSNDYTTHYAESVKGRFTISRDDSKNSLYLQMNSLKTEDTAVYYCTRHYYFDYWGQGTLVTVSS", "VL": "DIVMTQSPLSNPVTPGEPASISCRSSKSLLHSNGITYFFWYLQKPGQSPQLLIYQMSNLASGVPDRFSGSGSGTDFTLRISRVEAEDVGVYYCAQNLELPPTFGQGTKVEIKR", "notes": "Light chain unchanged; also called PM-N54D"}, "B3": {"name": "humanized antibody PankoMab N54Q (without Fab glycosylation) (antibody, human IgG1, kappa)", "heavy": "not shown", "light": "B1 light", "notes": "IgG1 kappa; Made in NM-H9D8 cells (for the FcγRIIIa assay also in NM-H9D8-E6Q12, low fucose); also called PM-N54Q; PM N54Q w/o Fab glyc"}}, "key": {"[1]": {"target": "T1, TA-MUC1 (tumor-associated MUC1) on human tumor cell lines (human, UniProt P15941 24-1255, aberrant tumor-associated O-glycosylation)", "T1 construct": "whole, on cells; also called cellular TA-MUC1; cell surface TA-MUC1", "T1 sequence (P15941 24-1255)": "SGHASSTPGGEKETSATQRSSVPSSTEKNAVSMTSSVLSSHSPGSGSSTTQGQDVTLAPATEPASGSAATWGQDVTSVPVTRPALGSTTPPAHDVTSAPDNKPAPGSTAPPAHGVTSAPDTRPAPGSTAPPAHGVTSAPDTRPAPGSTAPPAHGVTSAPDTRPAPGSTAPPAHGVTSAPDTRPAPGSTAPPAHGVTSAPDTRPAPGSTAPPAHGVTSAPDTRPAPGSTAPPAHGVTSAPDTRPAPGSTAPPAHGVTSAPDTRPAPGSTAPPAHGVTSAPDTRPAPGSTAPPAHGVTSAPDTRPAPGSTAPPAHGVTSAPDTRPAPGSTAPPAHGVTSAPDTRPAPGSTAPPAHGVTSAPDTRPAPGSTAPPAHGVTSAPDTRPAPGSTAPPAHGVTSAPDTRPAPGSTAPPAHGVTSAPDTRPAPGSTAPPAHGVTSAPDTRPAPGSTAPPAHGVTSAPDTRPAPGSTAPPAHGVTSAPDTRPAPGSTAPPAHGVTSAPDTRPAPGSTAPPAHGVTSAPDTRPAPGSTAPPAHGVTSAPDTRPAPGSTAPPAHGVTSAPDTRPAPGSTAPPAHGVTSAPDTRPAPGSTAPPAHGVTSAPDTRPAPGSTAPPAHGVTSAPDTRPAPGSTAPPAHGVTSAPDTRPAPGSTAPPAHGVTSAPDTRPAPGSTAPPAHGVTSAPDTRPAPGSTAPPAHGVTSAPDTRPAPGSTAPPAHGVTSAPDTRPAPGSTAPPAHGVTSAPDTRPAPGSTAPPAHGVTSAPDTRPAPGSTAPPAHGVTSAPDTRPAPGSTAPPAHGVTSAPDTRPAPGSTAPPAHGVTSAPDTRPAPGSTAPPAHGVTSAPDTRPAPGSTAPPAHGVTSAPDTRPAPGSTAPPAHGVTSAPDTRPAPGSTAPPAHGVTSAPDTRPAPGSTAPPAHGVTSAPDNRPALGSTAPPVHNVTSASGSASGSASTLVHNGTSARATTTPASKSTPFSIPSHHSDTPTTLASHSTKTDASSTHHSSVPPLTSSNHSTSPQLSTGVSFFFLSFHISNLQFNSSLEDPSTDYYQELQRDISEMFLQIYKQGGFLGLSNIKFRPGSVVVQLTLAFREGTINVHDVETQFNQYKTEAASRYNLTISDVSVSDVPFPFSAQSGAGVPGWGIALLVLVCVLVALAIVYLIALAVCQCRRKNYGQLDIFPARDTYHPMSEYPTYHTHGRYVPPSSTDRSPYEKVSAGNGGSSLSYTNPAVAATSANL", "experiment": "saturation binding of 111In-labelled antibody on MCF-7 cells", "protocol": "(§1) Binding of the Fab-deglycosylated version of the MUC1-specific antibody PankoMab (PM-N54Q) on TA-MUC-1 positive human tumor cell lines was evaluated using radiolabeled antibodies by saturated binding analysis on the human mamma carcinoma cell lines ZR-75-1 and MCF-7 in comparison to Fab-glycosylated PankoMab-GEX®. The antibodies were chelated with a 12-fold molar excess of p-SCN-Benzyl-DTPA in 50 mM sodium carbonate, 150 mM NaCl, pH 8.7, for 2 h at 37° C., followed by over-night incubation at 2-8° C. Free chelator was removed over desalting columns and dead-end filtration (50 kDa cut-off, 6× buffer exchange to PBS). The chelated antibodies were radiolabeled with carrier-free ¹¹¹In (2 μCi/μg antibody) for 1 h at 37° C. in 6 mM phosphate, 1.6 mM KCl, 80 mM NaCl, 0.2 M Na-acetate, 0.1 M HCl. The preparations were neutralized by addition of 8-9 fold volume of 10× concentrated PBS. About 1/50 volume of fetal bovine serum were added to the neutralized labelled antibody preparation. Per cell binding approach 1*10⁶ cells were used. Several concentrations of labelled antibodies were added to the pelleted cells (30-1000 ng/200 μL in 1% BSA/PBS). The resuspended cell-antibody mixtures were measured in a gamma-counter and incubated 1 h at 4° C. […] The cell pellet was then measured for bound ¹¹¹In-labelled antibody in a gamma counter. […]"}, "[2]": {"target": "T1, TA-MUC1 (tumor-associated MUC1) on …", "experiment": "saturation binding of 111In-labelled antibody on ZR-75-1 cells", "protocol": "as §1"}, "[3]": {"target": "T1, TA-MUC1 (tumor-associated MUC1) on …", "experiment": "flow cytometry on HSC-4 cells, detection with PE-conjugated goat anti-human IgG", "protocol": "(§2) N54Q and N54D were transiently expressed and purified by protein A chromatography. Binding of the two variants to cell surface TA-MUC1 was compared to PM with Fab glycosylation using two different carcinoma cell lines. The tongue squamous cell carcinoma line HSC-4 expresses TA-MUC1 to a medium degree and the ovarian carcinoma cell line CaOV-3 to a high degree. Tumor cells were incubated with antibodies in serial dilutions and bound antibodies were detected using a Phycoerythrin-conjugated goat anti-human IgG (heavy and light chain) antibody. A human IgG control was included to control for background staining. Binding was analyzed by flow cytometry."}, "[4]": {"target": "T1, TA-MUC1 (tumor-associated MUC1) on …", "experiment": "flow cytometry on CaOV-3 cells, detection with PE-conjugated goat anti-human IgG", "protocol": "as §2"}, "[5]": {"target": "T1, TA-MUC1 (tumor-associated MUC1) on …", "experiment": "saturation binding of 111In-labelled antibody on ZR-75-1 and MCF-7 cells", "protocol": "as §1"}}}
{"binder": "B1", "values": [{"measurement": "Ka", "setting": "[1]", "value": "3e+07", "unit": "M⁻¹"}, {"measurement": "Ka", "setting": "[2]", "value": "1.2e+07", "unit": "M⁻¹"}, {"measurement": "EC50 (read off the curve)", "setting": "[3]", "value": "~300", "unit": "ng/mL"}, {"measurement": "EC50 (read off the curve)", "setting": "[4]", "value": "~3", "unit": "ng/mL"}]}
{"binder": "B2", "values": [{"measurement": "EC50 (read off the curve)", "setting": "[4]", "value": "~4", "unit": "ng/mL"}]}
{"binder": "B3", "values": [{"measurement": "Ka", "setting": "[1]", "value": "7.8e+07", "unit": "M⁻¹"}, {"measurement": "Ka", "setting": "[2]", "value": "3.4e+07", "unit": "M⁻¹"}, {"measurement": "fold higher binding than PankoMab-GEX®", "setting": "[5]", "value": "> 2.5", "unit": "fold"}, {"measurement": "EC50 (read off the curve)", "setting": "[3]", "value": "~100", "unit": "ng/mL"}, {"measurement": "EC50 (read off the curve)", "setting": "[4]", "value": "~2", "unit": "ng/mL"}]}
